Biological target: T1, Arabidopsis TIR1, coexpressed with AtASK1 (His10-eGFP-FLAG-(TEV)-AtTIR1 and His10-(TEV)-AtASK1) (Arabidopsis, UniProt Q570C0;Q39255)
T1 sequence 1: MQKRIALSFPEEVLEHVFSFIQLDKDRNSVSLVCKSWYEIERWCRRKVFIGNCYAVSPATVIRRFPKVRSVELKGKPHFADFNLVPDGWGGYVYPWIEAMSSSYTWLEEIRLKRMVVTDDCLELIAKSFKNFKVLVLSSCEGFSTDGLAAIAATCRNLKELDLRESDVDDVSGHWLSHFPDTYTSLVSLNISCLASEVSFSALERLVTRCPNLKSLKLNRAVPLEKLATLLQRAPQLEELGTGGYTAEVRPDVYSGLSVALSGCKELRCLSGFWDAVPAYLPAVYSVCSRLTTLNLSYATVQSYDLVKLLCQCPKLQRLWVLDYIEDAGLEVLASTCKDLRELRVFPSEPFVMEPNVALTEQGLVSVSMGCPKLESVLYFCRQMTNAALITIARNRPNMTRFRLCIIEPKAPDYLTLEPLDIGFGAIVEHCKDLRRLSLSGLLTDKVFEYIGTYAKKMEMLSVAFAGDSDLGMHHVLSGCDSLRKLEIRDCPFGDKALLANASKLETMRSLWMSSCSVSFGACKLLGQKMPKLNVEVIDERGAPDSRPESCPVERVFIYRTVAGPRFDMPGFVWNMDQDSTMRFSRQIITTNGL
T1 sequence 2: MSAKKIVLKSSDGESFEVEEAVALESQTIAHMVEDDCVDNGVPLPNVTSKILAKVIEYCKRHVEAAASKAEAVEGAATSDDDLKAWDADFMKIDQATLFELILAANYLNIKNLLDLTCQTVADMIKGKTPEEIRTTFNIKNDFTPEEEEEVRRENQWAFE
Assay: NMR titration

B1: AXR3 DI/DII (N-terminal half, domains I and II, of the Aux/IAA protein AXR3/IAA17) (domain or fragment)
chain: MMGSVELNLRETELCLGLPGGDTVAPVTGNKRGFSETVDLKLNLNNEPANKEGSTTHDVVTFDSKEKSACPKDPAKPPAKAQVVGWPPVRSYRKNVMVSCQ
  binding result: binds

— article doi:10.1101/781922 (bioRxiv, 2019)
